± gives the uncertainty stated by the source.
B1: Protein piccolo, residues 1058 to 1114; numbered along this chain, Q9Y6V0 (parent)
chain: TCPLCKTELNIGSKDPPNFNTCTECKNQVCNLCGFNPTPHLTEIQEWLCLNCQTQRA

Variants of: B1
Test: abundance fitness (aPCA) (normalised: wild type 0, dead -1); higher = more abundant; growth selection in yeast, the domain comes from the species named
Conditions: Homo sapiens

Row | Variant | abundance fitness
1 | TCPLCKTELNIGSKDPPNFNTCTECKNQVCNLCGFNVTPHLTEIQEWLCLNCQTQRA [P37V] | 0.14 ± 0.1
2 | TCPLCKTELNIGSKDPPNFNTCTECKNQVCNLCGFNATPHLTEIQEWLCLNCQTQRA [P37A] | -0.02 ± 0.13
3 | TCPLCKTELNIGSKAPPNFNTCTECKNQVCNLCGFNPTPHLTEIQEWLCLNCQTQRA [D15A] | -0.138 ± 0.12
4 | TCPLCKTELNIGSKNPPNFNTCTECKNQVCNLCGFNPTPHLTEIQEWLCLNCQTQRA [D15N] | 0.02 ± 0.24
5 | TCPLCKTELNIGSKGPPNFNTCTECKNQVCNLCGFNPTPHLTEIQEWLCLNCQTQRA [D15G] | -0.124 ± 0.096
6 | TCPLCKTELNIGSKHPPNFNTCTECKNQVCNLCGFNPTPHLTEIQEWLCLNCQTQRA [D15H] | -0.239 ± 0.46
7 | TCPLCKTELNIGSKDPPNFNTCTECKNFVCNLCGFNPTPHLTEIQEWLCLNCQTQRA [Q28F] | -0.185 ± 0.12
8 | TCPMCKTELNIGSKDPPNFNTCTECKNQVCNLCGFNPTPHLTEIQEWLCLNCQTQRA [L4M] | 0.075 ± 0.1
9 | TCPLCKTELNIGSKDPPNFNTCTECKNQVCNLCGFDPTPHLTEIQEWLCLNCQTQRA [N36D] | -0.093 ± 0.16
10 | TCPLCKTELNIGSKDPPNFNTCTECKNQVCNLAGFNPTPHLTEIQEWLCLNCQTQRA [C33A] | -0.588 ± 0.12
11 | TCPLCKTELNIGSKDPPNFNTCTECKNQVCNLCGFNPTPHLTEIQEWLCLNAQTQRA [C52A] | -0.85 ± 0.16
12 | TCPLCKTELNIGSKDPPNFNTCTECKNQVCNLCGFNPTPHLTEIQEWLCLNPQTQRA [C52P] | -1.2 ± 0.23
13 | TCPLCKTELNIGSKDPPNFNTCTECKNQVCNLCGFNPTPHLTNIQEWLCLNCQTQRA [E43N] | -0.123 ± 0.38
14 | TCPLCKTELNIGSKDPPNFNTCTECKNQVCNLCNFNPTPHLTEIQEWLCLNCQTQRA [G34N] | -0.925 ± 0.35
15 | TCPLCKTELNIGSKDPPNFNTCTECKNQVCNLCEFNPTPHLTEIQEWLCLNCQTQRA [G34E] | -0.292 ± 0.17
16 | TCPLCKTELNIGSKDPPNFNTCTECKNQVCNLCAFNPTPHLTEIQEWLCLNCQTQRA [G34A] | -0.083 ± 0.15
17 | TCPLCKTELNIGSKDPPNFNTCTECKNQVCNLCGFNPTPHLTEIQEWLCLNCTTQRA [Q53T] | -0.067 ± 0.22
18 | TCPLCKTELNIGSKDPPNFNTCTECKNQVCNLCGFNPTPHLTEIQEWLCLNCSTQRA [Q53S] | 0.028 ± 0.12
19 | TCPLCKTELNIGSKDPPNFNTCTECKNQVCNLCGFNPTPHLTEIQEWLCLNCMTQRA [Q53M] | -0.36 ± 0.18
20 | TCPLCKTELNIGSKDPPNFNTCTEVKNQVCNLCGFNPTPHLTEIQEWLCLNCQTQRA [C25V] | -0.636 ± 0.084
21 | TCPLCKTELNIGSKDPPNFWTCTECKNQVCNLCGFNPTPHLTEIQEWLCLNCQTQRA [N20W] | -0.188 ± 0.096
22 | TCPLCKTELNIGSKDPPNFNTCTECKNQVCSLCGFNPTPHLTEIQEWLCLNCQTQRA [N31S] | 0.056 ± 0.098
23 | TCPLCKTELNIGCKDPPNFNTCTECKNQVCNLCGFNPTPHLTEIQEWLCLNCQTQRA [S13C] | -0.384 ± 0.13

Row | Variant | abundance fitness
24 | TCPLCKTEFNIGSKDPPNFNTCTECKNQVCNLCGFNPTPHLTEIQEWLCLNCQTQRA [L9F] | 0.007 ± 0.11
25 | TCPLCKTELNIGSKDPPNFNTCTECKNQVCNLCGFNPTPHLTEIQGWLCLNCQTQRA [E46G] | -0.042 ± 0.12
26 | TCPLCKTELNIGSKDPPNFNTCTECKNQVCNLCGFNPTPHLTEIQYWLCLNCQTQRA [E46Y] | -0.349 ± 0.25
27 | TCPLCKTELNIGSKDPPNFNTCTECKNQVCNLCGFNPTPHLTEIQDWLCLNCQTQRA [E46D] | -0.415 ± 0.38
28 | TCPLCKTELNIGSKDPPNFNTCTECKNQVCNLCGFNPTPHLTEIQTWLCLNCQTQRA [E46T] | -0.083 ± 0.19
29 | TCPLCKTELNIGSKDPPNFNTCEECKNQVCNLCGFNPTPHLTEIQEWLCLNCQTQRA [T23E] | -0.043 ± 0.14
30 | TCPLCKTELNIGSKDPPNFNTCTECKNQVCNLCGANPTPHLTEIQEWLCLNCQTQRA [F35A] | 0.139 ± 0.1
31 | TCPLCKTELNIGSKDPPNFNTCTECKNQVDNLCGFNPTPHLTEIQEWLCLNCQTQRA [C30D] | -0.499 ± 0.18
32 | TCVLCKTELNIGSKDPPNFNTCTECKNQVCNLCGFNPTPHLTEIQEWLCLNCQTQRA [P3V] | -0.294 ± 0.11
33 | TCCLCKTELNIGSKDPPNFNTCTECKNQVCNLCGFNPTPHLTEIQEWLCLNCQTQRA [P3C] | 0.148 ± 0.14
34 | TCPLCKTELNIGSKDPPNFNTCTECKNQECNLCGFNPTPHLTEIQEWLCLNCQTQRA [V29E] | -0.178 ± 0.12
35 | TCPLCNTELNIGSKDPPNFNTCTECKNQVCNLCGFNPTPHLTEIQEWLCLNCQTQRA [K6N] | 0.071 ± 0.16
36 | TCPLCGTELNIGSKDPPNFNTCTECKNQVCNLCGFNPTPHLTEIQEWLCLNCQTQRA [K6G] | -0.507 ± 0.074
37 | TCPLCKTELNIGSKDPPNFNTCTECKNQVCNLCGFNPTPHLTEIQEWLTLNCQTQRA [C49T] | -1.06 ± 0.26
38 | TCPLCKTELNIGSKDPPNFNTCTECKNQVCNLCGFNPTPHLTEIQEWLGLNCQTQRA [C49G] | -0.934 ± 0.14
39 | TCPLCKTELNIGSKDPPNFNTCTECKNQVCNLCGFNPTPHLTEIQEWLYLNCQTQRA [C49Y] | -0.958 ± 0.17
40 | TCPLCKTELNIGSKDPPNRNTCTECKNQVCNLCGFNPTPHLTEIQEWLCLNCQTQRA [F19R] | -0.263 ± 0.087
41 | TCPLCKTELNIGSKDPPNLNTCTECKNQVCNLCGFNPTPHLTEIQEWLCLNCQTQRA [F19L] | -0.151 ± 0.098
42 | TCPLCKTELNIGSKDPPNFNTCTECKNQVCNLCGFNPTPHWTEIQEWLCLNCQTQRA [L41W] | -0.133 ± 0.11
43 | TCPLCKTELNIGSKDPPNFNTCTECKNQVCNLCGFNPTPHCTEIQEWLCLNCQTQRA [L41C] | 0.004 ± 0.14
44 | TCPLCKTELNIGSKDPPNFNTCTECKNQVCNLCGFNPTPHPTEIQEWLCLNCQTQRA [L41P] | -0.037 ± 0.14
45 | TCPLCKTELNIGSKDPPNFNTCTECKNQVCNLCGFNPTPHETEIQEWLCLNCQTQRA [L41E] | -0.015 ± 0.15
46 | TCPLCKTELNHGSKDPPNFNTCTECKNQVCNLCGFNPTPHLTEIQEWLCLNCQTQRA [I11H] | 0.054 ± 0.14

— the Human Domainome abundance scans (Beltran et al. 2025)
